# Measurements taken from US20250250357A1 (NANJING ZAIMING PHARMACEUTICAL, published 2025).
# Where a chain is given by its changes, count along the chain named.
# B1: S009-F2.38.12 (antibody, human IgG1, kappa, V domains shown)
# VH: QVQLQQPGTELVKPGASVKLSCKASGYTFTSYWMHWVKQRPGQGLEWIGNINPSNGGTNYNEKIKNKATLTVDKSSSTAYMQLSSLTSEDSAVYYCARWNYYGNYPFDYWGQGTTLTVSS
# VL: DIVMTQSQKFMSTTVGDRVSITCKASQNVGTAVAWYQQKPGQSPKLLIYSASNRYTGVPDRFTGSGSGTDFTLTISNMQSEDLADYFCQQYSSYPLTFGAGTKLELKR
# notes: Human-murine chimeric antibody, human IgG1/kappa constant regions
# B2: S009-F2-56.12 (antibody, human IgG1, kappa, V domains shown)
# VH: DVQLQESGPGMVKPSQSLSLTCTVTGYSITSGYDWHWIRHFPGNKLEWMGYISYSGSTNYNPSLKSRISITHDTSKNHFFLKLKSVTTEDTATYYCARGTGPDYWGQGTTLTVSS
# VL: DIVMTQSQKFMSTSVGDRVSITCKASQNVRTAVAWYQQKPGQSPKALIHLPSNRHTGVPDRFTGSGSGTDFTLTISNVQSEDLADYFCLQHWNYPLTFGGGTKLEIKR
# notes: as for B1
# B3: S009-F7.67.12 (antibody, human IgG1, kappa, V domains shown)
# VH: QVQLQQPGTELVKPGASVRLSCRASGYSFSSYWMHWVKQRPGQGLEWLGNINPTTGDINYNEKFRNRATLAVDKSSTTAYLQLTSLTSEDSAVYFCVRHDGFLWGQGTTLTVSS
# VL: DIQMTQSPASLSASVGETVTITCRASENIYSYLAWYQQKQGKSPQLLVYYAKTLAEGVSSRFSGSGSGTQFSLKINSLQPEDFGTYYCQHQFGTPRTFGGGTKLEIRR
# notes: human-murine chimeric antibody, human IgG1/kappa constant regions
# B4: S009-F7.21.16 (antibody, human IgG1, kappa, V domains shown)
# VH: QVQLQQPGTELVKPGASVKLSCKASGYTFTTFWMHWVKQRPGQGLEWIGGVNPTNGGTNYNEKFRTKATLTVDKSSTTADMQLSSLTSEDSAVYYCAPHYISSRPGFAYWGQGTLVTVSG
# VL: DIVMTQSQKFMSTSGGDRVSVTCKASQNVGTNVAWYQQKPGQSPKALIYSASYRYSGVPDRFTGSGSGTDFILTISNVQSEDLAEYFCQQYNSYPLTFGGGTKLEIKR
# notes: as for B3
# B5: S009-F7.48.1 (antibody, human IgG1, kappa, V domains shown)
# VH: QVQLQQPGTELVKPGASVKLSCKASGYTFTSYWMHWVKQRPGQGLEWIGNINPSNGGTNNNENFKSKATLTVDTSSSTAYMQLSSLTSEDSAVYYCVRNGYHGYWYFDVWGTGTTVTVSS
# VL: B4 VL with G15V, K39Q, G66V, I72T
# notes: as for B3
# B6: S009-F7.33.24 (antibody, human IgG1, kappa, V domains shown)
# VH: B4 VH with T31S, F32Y, G50N, T54S, T58S, R65K, T66N, T77S, S84N, S102G
# VL: B4 VL with G15V, V33I, I72T, S76T, L104V
# notes: as for B3
# B7: S009-F7.25.19 (antibody, human IgG1, kappa, V domains shown)
# VH: QVQLQQPGTELVKPGASVKLSCKASGYTFTSYWMHWVKQRPGQGLEWIGNIIPSNGGTKYNEKFKSKATLTVDKSSSTAYMQLSSLTSEDSAVYYCSPHYYGGSPGFAYWGQGTLITVSA
# VL: B4 VL with G15V, T22I, I72T
# notes: as for B3
# B8: S009-F7.30.5 (antibody, human IgG1, kappa, V domains shown)
# VH: QVQLQQPKTELVKPGASVKLSCKASGYIFTTYWMHWVKQRPGQGLEWIGNVNPSNGGTMYNEKFERRATLTVDKSSSTADMQLSSLTSEDSAVYYCVPHYIGSRPGFAYWGQGTLVTVSG
# VL: B4 VL with G15V, Q38H, I48L, I72T, S76T
# notes: as for B3
# B9: S009-F7.66.12 (antibody, human IgG1, kappa, V domains shown)
# VH: QIPLQQSGPELVKPGASVRISCKASDYAFSSSWMNWVKQRPEKGLEWIGRIFVESGNTHYNDKFNGKATLTADKSSRTAYIQLSSLTSEDSAVYFCTRENIFYHGHSSWFAYWGQGTLVTVSA
# VL: DIVLTQSPASLVVSLGQRATISCRAGESVDDFGISYVHWYQQKPGQPPKLLIYRAANLESGIPARFSGSGSRTDFTLTINPVETDDVAIYYCQQNNKDPFTFGSGTKLEIKR
# notes: as for B3
# B10: S009-F7.65.13 (antibody, human IgG1, kappa, V domains shown)
# VH: EVQLQQSGPELVKPGTSVKILCKASGDTFTAYNMDWVKQRHGQSLEWIGDINPNTDSTIYNQKFEGKAILTVDKSSSTAYMELRSLTSEDTAVYYCARRKLGRGYFDYWGQGTTLTVSS
# VL: QIVLTQSPAIMSASPGEKVTMTCSVNLSVRYIYWYQQKPGSSPRLLIHDTSNLASGVPVRFSGSGSGTSYSLTISRMEAEDAATYYCQQWSSFPYTFGGGTKLEIKR
# notes: as for B3
# B11: S009-F7.11.11 (antibody, human IgG1, kappa, V domains shown)
# VH: EVQLQQSGPELVKPGASVKIPCKASGYTITDYNMDWVKQSRGKSLEWIGDVFPYNGDSIYNQKFEGRATLTVDKYSSTAYMELRGLTSEDTAVYFCARRKTGTGYFDVWGTGTTVTVSS
# VL: QLVLTQSPAIMSASPGEKVTLTCSASSSVSSTYLSWYLQKPGSSPKLWIYSTSNLASGVPARFSGSGSGTSYSLTISSMEAEDAASYFCHQWSSYPYTFGGGTKLEIKR
# notes: as for B3
# B12: S009-F7.12.13 (antibody, human IgG1, kappa, V domains shown)
# VH: EVQLQQSGPELVKPGASVKIPCKASGYTFTDYNMDWVKQSHGKGLEWIGDINPNTDDTIYNQKFNGKATLTVDKSSSTAYMELRSLTSEDTAVYYCSRRLIGTGYFDVWGTGTTVTVSS
# VL: B11 VL with L2I, S30I, S35C, L38R, K46E, S94N, E106G, I107M
# notes: as for B3
# B13: S009-F7.44.20 (antibody, human IgG1, kappa, V domains shown)
# VH: EVQLQQSGPELVKPGASVKIPCKASGYTFTDYNMDWVKQSHGKSLEWIGDINPSTGGTIYNQKFNGKATLTEDKSASTVYMEFRSLTSDDTAVYYCARRRIGTGYFDVWGTGTTVTVSS
# VL: B11 VL with L2I, I10L, S30I, T32S, L38Q, W48L, S51R, Y95F
# notes: as for B3
# B14: S009-F7.61.21 (antibody, human IgG1, kappa, V domains shown)
# VH: DVQLQQSGPELVEPGASVRIPCKAAGHTFTDYNVDWVKQSHGQSLEWIGDVNPNTDGAIYNQKFEGKATLTVDTSSSTAYMELRSLTSEDTAVYFCARRRLGQGGFDSWGQGTTLTVSS
# VL: B11 VL with L2V, S24G, V29L, S30I, T32K, S35Y, L38Q, L105V
# notes: as for B3
# B15: S009-F7.41.18 (antibody, human IgG1, kappa, V domains shown)
# VH: QVQLQQPGTELVKPGASVKLSCKASDYTFTSYWMHWVKQRPGQGLEWIGSINPSNGDTYYNEKFKNKATLTVDKSSSTAYMQLSSLTSDDSAVYYCARGWYFDVWGTGTTVTVSS
# VL: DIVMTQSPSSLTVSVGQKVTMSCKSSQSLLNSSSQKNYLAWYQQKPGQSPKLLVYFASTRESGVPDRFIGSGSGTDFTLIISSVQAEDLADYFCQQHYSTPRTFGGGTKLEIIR
# notes: as for B3
# B16: S009-F7.26.15 (antibody, human IgG1, kappa, V domains shown)
# VH: DVQLQESGPGLVKPSQTVFLTCTVTGISITTGNYRWSWIRQFPGNKLEWIGYIYYTGFITYNPSLTSRTTITRDTPKNQFFLEMKSLTAEDTATYYCARDDYDYDVFAYWGQGTLVTVSA
# VL: DIQMTQSPASLSASVGETVTITCRASGNIHNYLAWYHQKQGKSPQFLVYKAKTLADGVPSRFSGSGSGTQYSLKINRLQPEDFGSYYCQHFLSIPLTFGAGTKLELKR
# notes: as for B3
# B17: S009-F7.6.17 (antibody, human IgG1, kappa, V domains shown)
# VH: QVQLQQSGAELARPGASVKMSCKASGYTFTTYTMHWVKQRPGQGLEWIGYISPTGDFTKYNQKFKDKATLTTDKSSNTAFMQLSSLTSEDSAVYYCARWNGTVWFAYWGQGTLVTVSA
# VL: DIVMTQSQKFMSTSVGDRVTVTCKASQALGTNVAWYQQKPGQSPKVLIYSASYRYSGVPYRFAGGGSGTDFTLTITNVQSEDLAEYFCQQYNNYPLTFGAGTKLELKR
# notes: as for B3
# B18: S009-F7.23.19 (antibody, human IgG1, kappa, V domains shown)
# VH: EVKLVESGGGLVQPGGSLSLSCAASGFTFTDYYMSWVRQPPGKALEWLGFIRSKANAYTTEYSASVKGRFTISRDNSQSILYLQMNDLRAEDSATYYCARYYYYGSGYVWYFDVWGTGTTVTVSS
# VL: B4 VL with G15V, N28S, S43F, I72T, S76I, G100A, I106L
# notes: as for B3
# B19: S009-F7.53.2 (antibody, human IgG1, kappa, V domains shown)
# VH: EVQLQQSGPELVKPGASVKIPCKTSGYTFTDYNMDWVKQSHGKSLEWIGDINPNTDGAIYNQKFQNKATLTVDKSSSTAYMELRSLTSEDTAVYYCTRRKLGRKFFDYWGQGTTLTVSS
# VL: QIVLTQSPAIMSASPGEQVTMTCSASSSVGYMNWYQQKPGSSPRLLIYDTSNLASGVPVHFSGSGSGTSYSLTISRMEAAFAATYYCQQWYVYPYTFGGGTKLEIKR
# notes: as for B3
# B20: S009-F7.69.8 (antibody, human IgG1, kappa, V domains shown)
# VH: EVHLQQSGPELVKPGASVRIPCKASGYTFTDYNMDWVKQSHGKSLEWIGDINPDNGGTIYTQKFKGKATLTVDKSSSTAYMELRSLTSEDTAVYYCARRLHYYGSSGLDYWGQGTTLTVSS
# VL: DIQMTQSPASLSAYVGETVTITCRASGNIHNYLAWYQQKQGKSPQLLVYNAKTLADGVPSRFSGSGSGTQYSLKINSLQPEDFGSYYCQHFWSTVWTFGGGTKLEIKR
# notes: as for B3
# Target: T1, human MSLN-FL-his protein (human, UniProt Q13421 296-580)
# T1 construct: also called human MSLN full-length protein; hMSLN-FL-his; not shown: His tag
# Experiment: ELISA, coated MSLN full-length;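 note: binding of chimeric antibodies to plate-bound antigen, read by TMB colour after acid stop, antibody incubated 2 h at 37 °C, negative control antibody run alongside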
# T1 sequence (Q13421 other isoform, or with tags, fused parts or gaps): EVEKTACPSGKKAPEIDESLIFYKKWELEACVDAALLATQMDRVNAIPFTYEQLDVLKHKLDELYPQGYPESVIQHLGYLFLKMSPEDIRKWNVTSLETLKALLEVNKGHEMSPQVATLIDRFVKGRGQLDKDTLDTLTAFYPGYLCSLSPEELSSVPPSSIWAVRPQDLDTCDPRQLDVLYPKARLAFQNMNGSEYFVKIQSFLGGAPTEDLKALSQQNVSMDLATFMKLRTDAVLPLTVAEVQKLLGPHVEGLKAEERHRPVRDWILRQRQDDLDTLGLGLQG
# Protocol: The plate was sealed with a plastic film and incubated at 4° C. overnight. The next day, the plate was washed twice with PBST, and a blocking buffer [PBS+2% (w/w) BSA] was added for blocking at room temperature for 2 h. The blocking buffer was discarded, and a chimeric antibody or negative control antibody serially diluted from 100 nM was added at 50 μL/well. After incubation at 37° C. for 2 h, the plate was washed 3 times with PBST. […] After incubation at 37° C. for 2 h, the plate was washed 5 times with PBST. A TMB substrate was added at 50 μL/well for incubation at room temperature for 5-10 min, and then a stop solution (1.0 N HCl) was added at 50 μL/well.
OD450 at 0.0001 nM [OD450],OD450 at 0.001 nM [OD450],OD450 at 0.01 nM [OD450],OD450 at 0.1 nM [OD450],OD450 at 1 nM [OD450],OD450 at 10 nM [OD450],OD450 at 100 nM [OD450],OD450 at none (no antibody) [OD450],Binder
0.06,0.09,0.46,1.85,2.56,2.43,2.57,0.06,B1
0.06,0.07,0.16,0.37,0.41,0.37,0.4,0.07,B2

# Target: T2, human MSLN-FL-his protein (human, UniProt Q13421 296-580)
# T2 construct: made in HEK293E cells, purified on nickel column; also called hMSLN-FL-his; human MSLN full-length protein; not shown: His tag
# Experiment: SPR (Biacore), antibody captured on Protein A chip;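 note: flow cell at 25 °C, antigen injected for 240 s at five concentrations from 200 nM downward, dissociation followed up to 600 s, double-referenced, fitted with Langmuir 1:1 model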
# T2 sequence (Q13421 other isoform, or with tags, fused parts or gaps): as above
Kd [nM],koff [s⁻¹],kon [M⁻¹ s⁻¹],Binder
0.602,0.00065,1.08e+06,B3
1.69,0.000773,458000,B4
17.8,0.000413,23100,B5
10.2,0.00506,498000,B6
2.71,0.00113,417000,B7
3.83,0.000705,184000,B8
13.1,0.00236,180000,B9
1.44,0.000538,374000,B10
0.181,0.00024,1.33e+06,B11
40.5,0.00892,220000,B12
3.01,0.00106,351000,B13
5.03,0.00154,306000,B14
0.418,8.35e-05,200000,B15
0.2,0.000975,4.88e+06,B16
1.18,0.000389,329000,B17
13.6,0.00695,511000,B18
3.27,0.00065,199000,B19
6.51,0.00447,687000,B20
